These results are taken from publication PMC2706996.

For this series, the target named is T1, rSsp2 SM101 (Clostridium perfringens SM101 (type A), UniProt P21886 1-59).
T1 sequence: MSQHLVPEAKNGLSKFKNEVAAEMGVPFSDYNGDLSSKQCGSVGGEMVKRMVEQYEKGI
As to the kind of experiment: EMSA; glutaraldehyde-fixed; preferred probe. The note with it: protein: recombinant; tags: His6; label: 3'-biotin; blunt. On the technique in general: In EMSA bound probe runs differently from free probe, usually more slowly.

B1: GC-rich probe (69.1% GC), Label-D2/Label-R2 (dsDNA)
DNA 1: CTGGCGACTCAGAAGGGGCTCGAACCCTCGACCTCCGGCGTGACAGGCCGGCACT
DNA 2: AGTGCCGGCCTGTCACGCCGGAGGTCGAGGGTTCGAGCCCCTTCTGAGTCGCCAG
Regarding B1, the binding result was “binds”.
